# Earlier results, collected in article PMC6964287.
# Key:
# [1] = target: Asp85 (UniProt position 98, WARYADWLFTT); experiment: NMR; conditions: membrane-associated pHLIP; protonation linked to bilayer insertion
# [2] = target: Asp96 (UniProt position 109, PLLLLDLALLV); experiment: NMR; conditions: membrane-associated pHLIP; protonation linked to bilayer insertion
substance,measurement,setting,value
"pHLIP (pH-Low Insertion Peptide), peptide derived from bacteriorhodopsin helix C (Halobacterium salinarum)",pKa,[1],5.82 ± 0.08
same,pKa,[2],6.08 ± 0.08
